Results as given in the DeepSol protein solubility set.

assay: soluble on expression in E. coli; label from the status in PepcDB or PDB records

Soluble on expression in E. coli, not soluble:
MGSDKIHHHHHHMSDIESLGEAAGLFEEPEDFLPPPPKPHFAEYQRSHITKESKSDVKDIKLRLVGTSPLWGHLLWNAGIYTANHLDSHPELIKGKTVLELGAAAALPSVICALNGAQMVVSTDYPDPDLMQNIDYNIKSNVPEDFNNVSTEGYIWGNDYSPLLAHIEKIGNNNGKFDLIILSDLVFNHTEHHKLLQTTKDLLAEKGQALVVFSPHRPKLLEKDLEFFELAKNEFHLVPQLIEMVNWKPMFDEDEETIEVRSRVYAYYLTHEK
MGSDKIHHHHHHMSDLLEWQDLAQLPVSIFKDYVTDAQDAEKPFIWTEVFLREINRSNQEIILHIWPMTKTVILGMLDRELPHLELAKKEIISRGYEPVVRNFGGLAVVADEGILNFSLVIPDVFERKLSISDGYLIMVDFIRSIFSDFYQPIEHFEVETSYCPGKFDLSINGKKFAGLAQRRIKNGIAVSIYLSVCGDQKGRSQMISDFYKIGLGDTGSPIAYPNVDPEIMANLSDLLDCPMTVEDVIDRMLISLKQVGFNDRLLMIRPDLVAEFNRFQAKSMANKGMVSRDE
MGSDKIHHHHHHMSDLQSLQPKLLWQWFDQICAIPHPSYKEEQLAQFIINWAKTKGFFAERDEVGNVLIRKPATVGMENRKPVVLQAHLDMVPQANEGTNHNFDQDPILPYIDGDWVKAKGTTLGADNGIGMASALAVLESNDIAHPELEVLLTMTEERGMEGAIGLRPNWLRSEILINTDTEENGEIYIGCAGGENADLELPIEYQVNNFEHCYQVVLKGLRGGHSGVDIHTGRANAIKVLLRFLAELQQNQPHFDFTLANIRGGSIRNAIPRESVATLVFNGDITVLQSAVQKFADVIKAELALTEPNLIFTLEKVEKPQQVFSSQCTKNIIHCLNVLPNGVVRNSDVIENVVETSLSIGVLKTEDNFVRSTMLVRSLIESGKSYVASLLKSLASLAQGNINLSGDYPGWEPQSHSDILDLTKTIYAQVLGTDPEIKVIHAGLECGLLKKIYPTIDMVSIGPTIRNAHSPDEKVHIPAVETYWKVLTGILAHIPSR
MGSDKIHHHHHHMSDPIPAAPTDNGVPVSLRSSRGRGWHGFGASLLEIRAGTYRIPAAEHHRIGVHIGSPVRADCVCDGARVSRIQAHGDVDVIPAGLPGEWTDSADCRILHIALSDTFVRRTFDQLELKPSQAQIRRRLQVRDPRLQHIAWAMAAELEAEDASDPLYAESLCTALVARLADSQPAFREHRRTLAPKAAARVIDYVEANLERRMTLAELAALVSISVPHFKVLFRETLGMPVHQYVVRRRVERAKALLLEGRLGISQIALEAGFAHQSHMAHWMNRVLGATPTEIARSGARGGLRLAYDGEDR
MGSDKIHHHHHHMSDSTTPETIIVIGASSLMAQAFIAKTFTQQAYTDQTVIQQASSQQSKRHDTSPLQIITVSRQNKLILHDLTDNISHHHFSCDYQQASIEQCVTNIAAIAGKVTRIVMCNGILHSKNPQSADSILGPHSANDSTLMPEKRIEDIDALSLEQLFYANSIVPMLWLSALTSLLSLPRHKVAGEQKCVISILSARVGSISDNRLGGWYGYRASKAALNMLIKTTAVEYARRLKRVKLIAFHPGTTDTPLSKPFQANVPAGKLFTPEFVASQLYNIMADIEPNGEASYLDWQGKEISW
MGSDKIHHHHHHMSEKRQPWVQDLLWRLEALGFDLFIGAVRMMGVDRASDFGGWLGRTFGPMSGAHKVASRNLKLAFPDKDAAWHETILREQWDGLGRSFAEFPLMDKILPSTGRVEVVGKERLVEIAENRIPVVFVSGHLSNWEVMPAAIVDSGVICEMTYRAANNPYVDKRIKESRFRYGVRLFAPKGGDGARELLEGMKQGKSVALMNDQKFNSGVAAPFFGHLAHTAPGPTRLAIRFGTVLQPMSVQRLKGARFRAVVHDPIVPPKTGDRTADIEAGVRMINAFMEDRIRERPAEWFWVHRRWPNEVYAALAERERAAESSS
MGSDKIHHHHHHMSERLDENFSRAIDLMLACTGKIIISGMGKSGIIGQKIAATLSSTGTTAIFLHPAEAAHGDLGVVSEGDTVICLSKSGMTEELNFILPALRERKATIIAFTGNPRSYLAMNADVVLDTGVEQEACPYDLAPTSSTTAMLAMGDALAICLMKKKNFTDQEFALTHPKGSLGKQLTMRVGDVMATGDALPVVSEDAMLSDLILEMTSKRYGVSGVVDAEGKLTGIFTDGDLRRLVQTGESFLDKKAVEVMTPNPKTVAPDMKAKACLELLETHRITQLMVCDEKRCPVGIVHIHDLVTLGL
MGSDKIHHHHHHMSESAESVELIKLPVSQLTLGMFVSAIDKNDKGQLAIANAGQIKHKDAILKLAKSGIKFVWVDAERSAEHCGLKKKTTNDSQTDNRKAPVSRDKQQAQAKVMLTEAKDLIRKVLSETFEGKAIEVAPFEALADTMIESVMLDADALKCMSALRSKDAYLLEHSVNVAFLLVTFGKYLQLDRDMLRQMAVGGILHDIGKIKVDNKVLHKPGKLTPEEFEHMKLHQVYELEIMNETTGLSQISKDICLMHHEKLDGRGYPRGLKDDEIPRHGRMSCIVDIFDALTATRCYKEAMSPAAAFKILLSLTPFHLDQQLVYEFIRCIGIYPVGSLVELSDGRIGIVWASKDRDALHPIVKCFYSLKVKRYTDVAMVDLLKSELYIERGVSPSSLDIDPTPFY
MGSDKIHHHHHHMSETIQPGQTAVVLGAGGFLGSHVADALSNAGYKVRLFDRNPSPFRRSDQEMIIGDLMDISQVSNAVQGAAAVYNFAAIADIDEAHDNPLGTASINVLGNMHALEASRLAGVRRFIFASSVYVYSETGSFYRASKQAAERFTETYHERYGLEYTILRYGSLYGRRSDRRNGIYRMLHEAIQQRAITYRGSGESIREYIHVEDAARMSVQILAPEFANRHLILTGQEKLRIRDVMTMISEMLPWNVDLHYDQAKPGHHYQITPYAFQPRVGRKLVLNEHVDLGQGLLDCIQEIYQQISHGNEEGGTTPSSTDNQA
MGSDKIHHHHHHMSHISTADIEQVILPSSRDLGGFSVRRALPAPMRQMVGPFIFLDSFGPVRFGEGEGIDTRPHPHIGLSTLTYLLEGELTHRDSERYVQAIRPGEVNVMVAGAGIVHSERTPEHQRATGGKLAGLQSWIALPKKSEETAPLFQHLDAGSLPTVSGEGIGMKLLAGNLHGRQSPATVFSDLFAAEVHLEAGARYRIDGEHVERAIFVVAGALEIVGQDGNFGQDRLLVFKPGSEIVVKATGPARFLAFGGEPLPEKRFIRWNFVATDQERIRHAADLWRERGFPGVPDDDEFIPLPENFR
MGSDKIHHHHHHMSHITDIAYKNWIVELKSKIRSSQVKASLAINAALIEFYWDLGKMIAEKQTAWGTKFIEQVSHDLQVEFPEMKGLSTTNLKYCRSFYLFYQNAIGQQAVAQLPVTPNVQQGVGEISQQSVDQLQHIEKQVNVFGQQFVAQIPWGHNILIFTKSKSYTEAQFYLQQTISNAWGRETLALQIKSQLFERQGKAITNFKQTLPEPLSDLAQQTLKDPYNFDFVNMAGTMKEKDLEKQLITHISKFLLELGKGFAFVGQQYHLEIAENDYYLDLLFYHIKLKCYVVIELKNTKFVPEYTGKMNFYLSAVDTLLKQDDDKPTIGILLCRDKNNIEAEFALRDINKPIGISEFSFTEILPENLKSSLPTVEELENELQHLTNDTDEN
MGSDKIHHHHHHMSHRFFYRILGMRYLTSTNRKGYARMLFHRFSEKEWNFLKNDENNECFSCLMFYSRTGNAGRLEEEITDMKVDILSREYPPKVYGGAGVHAEELSKVLAERVDVTVRAFDGPRTAADIPAIPGTDPKGSLTVVGYDVPKELEDANGALKTFGVDLQIANDVDADIIHAHTWYACLAGYLAKMLHDTPLVITAHSLEPFRPWKREQLGGGYNLSSWAEKDAYEHADRVIAVSAGMREDILTAYPNLDPDKVVVVHNGITMSQFETPADDDPGWKVFERYNIDRSKPTLLFVGRITRQKGLPYLLQALHFVDPNIQVVLCAGAPDTPEIMEEVKTAFAKLDEERGNIIWIEEMLPKPELNALEHGCDAFICPSIYEPLGIVNLEAMACGLPVVASATGGIPEVVVDGETGYLVPVDQLHDGTGTPTNPDKFVHDMADAINRIMADPEKAKRMGQAGYERARDHFSWESIADKTVKVYEDVLAERK
